Measurements reported in the supplement of paper PMC9876800.

System: peptide library, one residue held at a place counted from the S/T acceptor
Experiment: relative phosphorylation of the sub-library (ratio to the mean residue at this position); higher = residue favoured
Conditions: human
Procedure, shortened: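 Relative sub-library phosphorylation is the ratio of each sub-library's signal to the mean residue at that position. The signal came from phosphorimaging of spots on streptavidin membranes, quantified by densitometry, after purified recombinant kinases reacted with biotinylated degenerate peptide sub-libraries in 384-well plates. Reactions held 50 μM peptide and 50 μM ATP spiked with γ-32P-ATP for 90 min under kinase-specific conditions.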

Sequence of PRKD3, construct: Full length (O94806 whole entry, looked up): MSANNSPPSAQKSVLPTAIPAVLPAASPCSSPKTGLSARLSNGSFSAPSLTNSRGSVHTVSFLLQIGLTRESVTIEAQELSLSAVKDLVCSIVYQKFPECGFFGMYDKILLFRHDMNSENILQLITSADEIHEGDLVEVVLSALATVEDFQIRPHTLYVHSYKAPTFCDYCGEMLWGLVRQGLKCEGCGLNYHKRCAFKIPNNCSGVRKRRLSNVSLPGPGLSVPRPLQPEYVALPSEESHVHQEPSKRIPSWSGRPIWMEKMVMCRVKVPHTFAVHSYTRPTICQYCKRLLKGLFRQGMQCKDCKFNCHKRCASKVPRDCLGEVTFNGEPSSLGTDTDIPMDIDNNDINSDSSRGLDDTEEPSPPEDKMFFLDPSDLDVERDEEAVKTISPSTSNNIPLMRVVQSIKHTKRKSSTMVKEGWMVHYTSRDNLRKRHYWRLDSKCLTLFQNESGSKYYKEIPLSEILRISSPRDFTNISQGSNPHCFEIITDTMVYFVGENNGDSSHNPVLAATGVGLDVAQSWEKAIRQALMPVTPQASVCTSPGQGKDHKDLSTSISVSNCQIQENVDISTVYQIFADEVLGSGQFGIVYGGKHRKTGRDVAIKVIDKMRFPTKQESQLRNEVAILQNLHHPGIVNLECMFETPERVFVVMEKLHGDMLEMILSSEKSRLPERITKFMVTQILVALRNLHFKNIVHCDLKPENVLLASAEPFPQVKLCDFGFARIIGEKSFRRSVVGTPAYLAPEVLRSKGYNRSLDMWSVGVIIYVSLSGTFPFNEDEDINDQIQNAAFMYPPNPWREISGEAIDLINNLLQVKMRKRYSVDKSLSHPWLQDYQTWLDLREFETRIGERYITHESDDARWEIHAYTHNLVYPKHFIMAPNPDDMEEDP
Sequence of PRKAA1, construct: Full length (Q13131 whole entry, looked up): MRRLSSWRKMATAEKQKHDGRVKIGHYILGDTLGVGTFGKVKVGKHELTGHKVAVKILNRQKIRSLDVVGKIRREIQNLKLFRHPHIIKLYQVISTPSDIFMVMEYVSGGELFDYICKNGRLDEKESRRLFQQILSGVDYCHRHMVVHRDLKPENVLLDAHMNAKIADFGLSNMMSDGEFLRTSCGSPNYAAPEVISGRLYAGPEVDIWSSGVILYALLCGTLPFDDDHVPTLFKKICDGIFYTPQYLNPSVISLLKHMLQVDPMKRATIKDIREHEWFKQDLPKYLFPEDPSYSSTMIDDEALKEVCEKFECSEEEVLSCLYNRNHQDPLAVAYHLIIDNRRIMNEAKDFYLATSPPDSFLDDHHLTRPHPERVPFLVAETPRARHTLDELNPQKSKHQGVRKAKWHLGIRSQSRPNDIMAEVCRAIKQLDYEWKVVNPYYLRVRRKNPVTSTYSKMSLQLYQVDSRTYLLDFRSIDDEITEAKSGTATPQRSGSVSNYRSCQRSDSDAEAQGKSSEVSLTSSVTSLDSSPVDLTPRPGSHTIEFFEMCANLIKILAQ
Sequence of PLK1, construct: Full length (P53350 whole entry, looked up): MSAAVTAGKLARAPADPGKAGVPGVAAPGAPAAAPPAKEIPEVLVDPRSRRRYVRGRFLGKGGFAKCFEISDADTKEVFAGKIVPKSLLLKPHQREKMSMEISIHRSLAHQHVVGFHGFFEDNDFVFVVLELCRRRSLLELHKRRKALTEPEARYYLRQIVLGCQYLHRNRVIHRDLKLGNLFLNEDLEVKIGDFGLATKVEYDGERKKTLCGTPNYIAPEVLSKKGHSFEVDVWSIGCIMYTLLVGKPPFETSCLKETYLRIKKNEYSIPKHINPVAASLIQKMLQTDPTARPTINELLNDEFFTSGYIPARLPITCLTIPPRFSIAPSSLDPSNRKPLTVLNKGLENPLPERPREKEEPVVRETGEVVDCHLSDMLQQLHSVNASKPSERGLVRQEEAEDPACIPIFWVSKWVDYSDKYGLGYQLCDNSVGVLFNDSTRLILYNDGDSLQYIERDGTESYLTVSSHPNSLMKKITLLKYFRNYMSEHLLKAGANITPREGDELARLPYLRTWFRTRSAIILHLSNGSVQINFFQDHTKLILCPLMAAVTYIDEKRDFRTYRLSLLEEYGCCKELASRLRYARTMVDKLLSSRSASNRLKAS

PLK1, construct: Full length (from UniProt P53350)
relative phosphorylation
Conditions | at +1 | at +2 | at +3 | at +4 | at -1 | at -2 | at -3 | at -4 | at -5
A fixed | 0.622 | 0.73 | 0.85 | 0.951 | 0.748 | 0.452 | 0.934 | 1.12 | 1.16
D fixed | 0.419 | 0.677 | 1.4 | 1.35 | 1.62 | 3.98 | 1.1 | 1.47 | 1.34
E fixed | 0.461 | 0.705 | 1.87 | 1.48 | 1.46 | 2.28 | 1.23 | 1.31 | 1.1
F fixed | 3.16 | 1.2 | 0.935 | 0.898 | 0.734 | 0.523 | 1.09 | 0.918 | 0.876
G fixed | 0.524 | 0.439 | 0.881 | 1.01 | 0.451 | 0.679 | 1.23 | 1.09 | 1.21
H fixed | 0.809 | 1.28 | 1.13 | 1.01 | 1.03 | 0.861 | 1.47 | 0.981 | 1.1
I fixed | 1.28 | 1.37 | 1.05 | 0.769 | 0.976 | 0.402 | 0.66 | 0.816 | 0.757
K fixed | 0.593 | 0.567 | 0.679 | 0.782 | 1.04 | 0.495 | 0.689 | 0.942 | 1.02
L fixed | 1.36 | 1.7 | 1.02 | 0.795 | 0.964 | 0.53 | 1.33 | 0.979 | 0.807
M fixed | 1.72 | 1.4 | 0.972 | 0.932 | 1.2 | 0.505 | 1.38 | 0.95 | 0.802
N fixed | 0.606 | 1.14 | 0.82 | 1.1 | 1.24 | 2.86 | 1.08 | 1 | 1.22
P fixed | 0.246 | 0.421 | 0.579 | 1.41 | 0.42 | 0.33 | 0.785 | 0.836 | 0.936
Q fixed | 0.856 | 0.847 | 0.982 | 0.945 | 1.17 | 0.747 | 0.857 | 0.849 | 0.842
R fixed | 0.908 | 0.959 | 0.76 | 0.813 | 1.4 | 0.641 | 0.998 | 0.961 | 1.02
V fixed | 1.06 | 1.14 | 1.02 | 0.701 | 1.03 | 0.373 | 0.552 | 0.791 | 0.813
W fixed | 0.971 | 1.05 | 1.05 | 1.09 | 0.563 | 0.636 | 0.898 | 1.16 | 1.06
Y fixed | 1.4 | 1.38 | 1 | 0.958 | 0.952 | 0.709 | 0.718 | 0.832 | 0.927
pThr fixed | 2.54 | 0.971 | 0.987 | 2.29 | 1.02 | 0.627 | 0.945 | 1.03 | 1.3
pTyr fixed | 1.02 | 1.47 | 1.67 | 1.8 | 1.98 | 0.802 | 1.01 | 0.88 | 1.33

PRKAA1, construct: Full length (from UniProt Q13131)
relative phosphorylation
Conditions | at +1 | at +2 | at +3 | at +4 | at -1 | at -2 | at -3 | at -4 | at -5
A fixed | 0.927 | 1.41 | 0.812 | 0.574 | 1.05 | 1.27 | 0.845 | 1.21 | 0.908
D fixed | 0.609 | 0.529 | 1.53 | 0.606 | 0.666 | 0.413 | 0.32 | 0.497 | 0.381
E fixed | 0.781 | 0.496 | 0.935 | 0.516 | 0.578 | 0.475 | 0.453 | 0.63 | 0.374
F fixed | 1.63 | 0.899 | 1.1 | 1.25 | 0.643 | 0.718 | 0.516 | 0.682 | 1.2
G fixed | 0.773 | 0.759 | 0.902 | 0.659 | 1.4 | 1.05 | 0.889 | 1.2 | 0.857
H fixed | 1.18 | 1.48 | 1.5 | 0.757 | 1.11 | 1.28 | 1.28 | 1.19 | 0.816
I fixed | 0.75 | 1.38 | 0.705 | 2.17 | 0.379 | 0.944 | 0.402 | 0.659 | 1.41
K fixed | 1 | 0.723 | 1.15 | 0.753 | 1.93 | 1.73 | 2.54 | 2.1 | 1.35
L fixed | 0.813 | 1.23 | 0.803 | 2.67 | 0.63 | 0.541 | 0.45 | 0.643 | 1.63
M fixed | 1.49 | 0.855 | 0.833 | 1.89 | 0.972 | 0.638 | 0.609 | 0.895 | 1.5
N fixed | 0.86 | 1.08 | 1.55 | 0.775 | 1.12 | 1.7 | 0.869 | 0.947 | 0.724
P fixed | 0.231 | 1.31 | 0.39 | 0.767 | 1.32 | 0.783 | 1.04 | 1.19 | 0.944
Q fixed | 1.23 | 0.893 | 0.996 | 0.704 | 1.31 | 0.92 | 0.879 | 0.888 | 0.847
R fixed | 1.24 | 0.649 | 1.09 | 0.691 | 1.66 | 1.81 | 4.12 | 2.17 | 1.71
V fixed | 0.893 | 1.48 | 0.65 | 0.969 | 0.589 | 1.3 | 0.477 | 0.728 | 0.784
W fixed | 1.35 | 0.922 | 1.19 | 0.693 | 0.782 | 0.705 | 0.633 | 0.681 | 0.731
Y fixed | 1.23 | 0.897 | 0.866 | 0.556 | 0.87 | 0.716 | 0.677 | 0.705 | 0.836
pThr fixed | 0.737 | 0.513 | 0.427 | 0.606 | 0.418 | 0.679 | 0.632 | 0.724 | 0.726
pTyr fixed | 0.604 | 0.5 | 0.601 | 0.485 | 0.685 | 0.568 | 0.51 | 0.492 | 0.778

PRKD3, construct: Full length (from UniProt O94806)
relative phosphorylation
Conditions | at +1 | at +2 | at +3 | at +4 | at -1 | at -2 | at -3 | at -4 | at -5
A fixed | 0.865 | 1.03 | 0.829 | 0.85 | 0.845 | 1.21 | 1.03 | 1.31 | 0.989
D fixed | 0.493 | 0.636 | 0.664 | 0.709 | 0.598 | 0.341 | 0.231 | 0.402 | 0.344
E fixed | 0.444 | 0.536 | 0.561 | 0.66 | 0.486 | 0.418 | 0.272 | 0.711 | 0.332
F fixed | 1.09 | 1.07 | 1 | 1.09 | 0.812 | 0.56 | 0.417 | 0.797 | 0.895
G fixed | 0.727 | 1.06 | 1.17 | 1.21 | 0.6 | 0.453 | 0.375 | 1.21 | 0.563
H fixed | 1.33 | 1.36 | 1.22 | 1.29 | 1.15 | 0.839 | 0.572 | 1.14 | 0.525
I fixed | 1.02 | 0.628 | 0.744 | 0.795 | 0.526 | 0.496 | 0.321 | 0.678 | 1.11
K fixed | 1.31 | 1.27 | 1.21 | 1.22 | 2.07 | 2.85 | 2.2 | 1.98 | 0.895
L fixed | 1.06 | 0.824 | 0.957 | 0.908 | 1.18 | 0.867 | 0.359 | 0.809 | 3.37
M fixed | 1.16 | 0.929 | 0.883 | 0.854 | 1.03 | 1.43 | 0.444 | 1.15 | 0.774
N fixed | 1.48 | 1.26 | 1.02 | 1.1 | 1.38 | 0.795 | 0.418 | 0.649 | 0.483
P fixed | 0.453 | 1.24 | 1.72 | 1.31 | 1.1 | 0.374 | 0.478 | 0.476 | 1.08
Q fixed | 1.08 | 0.877 | 0.984 | 1.1 | 0.889 | 1.83 | 0.588 | 1.16 | 0.866
R fixed | 1.28 | 1.38 | 1.05 | 0.774 | 1.79 | 2.58 | 8.02 | 2.12 | 1.8
V fixed | 0.988 | 0.718 | 0.812 | 0.774 | 0.751 | 0.778 | 0.333 | 0.85 | 1.61
W fixed | 0.885 | 1.05 | 0.991 | 1.31 | 0.708 | 0.526 | 0.436 | 0.638 | 0.544
Y fixed | 1.35 | 1.12 | 1.19 | 1.04 | 1.08 | 0.657 | 0.51 | 0.934 | 0.827
pThr fixed | 0.532 | 0.513 | 0.622 | 0.51 | 0.321 | 0.349 | 0.266 | 0.508 | 0.377
pTyr fixed | 0.589 | 0.609 | 0.669 | 0.608 | 0.662 | 0.409 | 0.495 | 0.511 | 0.572
